From patent US20230038638A1, “COMPLEMENT FACTOR I-RELATED COMPOSITIONS AND METHODS” (published 2023)

Assays:
[1] = target: T1, human C4b (human) (UniProt P0C0L4)
T1 sequence: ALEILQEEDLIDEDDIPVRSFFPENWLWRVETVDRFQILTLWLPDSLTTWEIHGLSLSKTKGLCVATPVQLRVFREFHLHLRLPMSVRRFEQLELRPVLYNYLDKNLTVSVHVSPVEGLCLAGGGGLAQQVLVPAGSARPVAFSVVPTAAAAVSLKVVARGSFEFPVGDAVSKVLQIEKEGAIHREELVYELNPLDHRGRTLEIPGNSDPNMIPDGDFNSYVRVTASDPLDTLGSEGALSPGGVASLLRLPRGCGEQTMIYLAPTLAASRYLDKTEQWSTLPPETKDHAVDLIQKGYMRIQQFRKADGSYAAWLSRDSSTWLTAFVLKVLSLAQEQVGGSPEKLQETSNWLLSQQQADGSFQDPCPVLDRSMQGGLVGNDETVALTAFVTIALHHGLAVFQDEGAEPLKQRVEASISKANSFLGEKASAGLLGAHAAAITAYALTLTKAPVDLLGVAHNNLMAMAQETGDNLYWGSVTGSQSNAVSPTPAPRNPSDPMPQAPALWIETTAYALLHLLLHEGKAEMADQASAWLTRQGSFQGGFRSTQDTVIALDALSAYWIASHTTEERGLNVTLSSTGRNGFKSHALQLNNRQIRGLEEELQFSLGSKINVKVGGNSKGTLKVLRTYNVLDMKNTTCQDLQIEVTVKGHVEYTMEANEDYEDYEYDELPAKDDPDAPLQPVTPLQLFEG

[2] = target: soluble human C3b (human) (UniProt P01024)
[3] = target: T1, human C4b (human); remark: listed apart in the source
[4] = target: soluble human C3b (human) (UniProt P01024); remark: listed apart in the source

Row | Substance | C4b Screen Ref Fold (fold of reference) [1] | iC3b Screen Ref Fold (fold of reference) [2] | C4c EC50 (nM) [3] [nM] | iC3b EC50 [4] [nM] | C4b Screen Ref Fold (fold of CFI-HSA wild type) [1] | iC3b Screen Ref Fold (fold of CFI-HSA wild type) [2] | C4c EC50 [3] [nM]
1 | CFI-HSA variant G406D (enzyme) | 0.33 | 0.12 | > 1000 | 151 |  |  | 
2 | CFI-HSA variant K504R; E457G; E461Q; N531G (enzyme) |  |  | 8.2 | 3 | 4.18 | 2.98 | 
3 | CFI-HSA variant Y403F (enzyme) | 3.55 | 0.41 | 338 | 47.8 |  |  | 
4 | CFI-HSA variant T377G (enzyme) | 6.1 | 1.01 | 147 | 16.4 |  |  | 
5 | CFI-HSA variant G406T (enzyme) | 1.09 | 0.52 |  | 52.4 |  |  | > 1000
6 | CFI-HSA variant Y408F; E457G; E461Q; R462K; E530Y; N531G; P558S (enzyme) |  |  | 20.4 | 5.1 | 4.41 | 2.21 | 
7 | CFI-HSA variant E457R (enzyme) | 4.6 | 1.42 | 182 | 10.5 |  |  | 
8 | CFI-HSA variant T377G; Y408L; E457G; E461Q; R462K; N531G (enzyme) |  |  | 6.3 | 6.6 | 3.44 | 1.06 | 
9 | CFI-HSA variant K504N (enzyme) | 0.57 | 0.18 | > 1000 | 76.8 |  |  | 
10 | CFI-HSA variant G406E (enzyme) | 0.88 | 0.13 | > 1000 | 116 |  |  | 
11 | CFI-HSA variant G406I (enzyme) | 0.97 | 0.4 |  | 54.4 |  |  | > 1000
12 | CFI-HSA variant T377G; E457G; E461Q; F464Y; N531G (enzyme) |  |  | 23.3 | 3.4 | 4.08 | 2.12 | 
13 | CFI-HSA variant K418G; D425G (enzyme) | 0.84 | 0.19 |  | 28.5 |  |  | 865
14 | CFI-HSA variant E457K (enzyme) | 4.58 | 1.37 | 135 | 9.5 |  |  | 
15 | CFI-HSA variant E457G; E461Q; R462K; F464Y; E530F; N531G; P558S (enzyme) |  |  | 21.4 | 5.5 | 4.65 | 2.22 | 
16 | CFI-HSA variant G406Y (enzyme) | 0.43 | 0.39 |  | 14.9 |  |  | > 1000
17 | CFI-HSA variant D425R; E457G; E461Q; N531G (enzyme) |  |  | 4 | 2.2 | 4.25 | 1.9 | 
18 | CFI-HSA variant N531L (enzyme) | 3.47 | 1.04 | 219 | 17.6 |  |  | 
19 | CFI-HSA variant E457L (enzyme) | 0.14 | 0.21 | > 1000 | 51.4 |  |  | 
20 | CFI-HSA variant G406M (enzyme) | 1.17 | 0.6 |  | 40.5 |  |  | > 1000
21 | CFI-HSA variant E457Y (enzyme) | 0.12 | 0.03 | > 1000 | 90.6 |  |  | 
22 | CFI-HSA variant K504M (enzyme) | 0.14 | 0.52 | > 1000 | 43.8 |  |  | 
23 | CFI-HSA variant N531M (enzyme) | 2.48 | 0 | 99.8 | 21.2 |  |  | 
